Experimental data taken from the supplement of paper PMC7125110.
± gives the standard error. Variants at the floor of the assay were thinned out.

B1: glmS ribozyme (parent)
chain: AUAAAAGCGCCAGAACUACAGAAAUGUAGUUGACGAGGAGGAGGUUUAUCGAAUUUUCGGCGGAUGCCUCCAAA

Variants of: B1
Test: self-cleavage kobs at 10000 uM GlcN6P; higher = faster cleavage; RNA array
Conditions: with glucosamine-6-phosphate
Summary of the method: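 Using a hybridised Cy3 probe at 37 °C, barcoded ribozyme variants transcribed in situ by E. coli RNA polymerase on sequenced MiSeq chips were monitored across tiles imaged over ~14 h. The flow contained glucosamine-6-phosphate from 40 μM to 10 mM in HEPES/KCl/Mg(OAc)2 buffer. Signals were normalised to baseline and to non-cleaving reference variants before per-tile medians were fit to one- or two-exponential decays to yield kobs. Weighted Michaelis–Menten fits across concentrations gave kcat and KM.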

AUAAAAGCGCCAUCACUACAGAAAUGUAGUUGACGAGGAGGAGGUUUAUCGAAUUUUGGGCGGAUGCCUCCAAA [G13U A14C C58G] and AUAAAAGCGCCAGAACUACAGAAAUGUAGUUGACGAGGAGGAGGUUAAUGGAAUUUUCGGCGUAUGCCGCCAAA [U47A C50G G63U U69G] are within error of each other in “self-cleavage kobs at 10000 uM GlcN6P” value: 7.6e-05 ± 1.7e-05 s⁻¹ for the first, 5.11e-05 ± 1.5e-05 s⁻¹ for the second.

AUAAAAGCGCCAGAACUACAGAAAUGUAGUUGACGAGUAGGAGGAUUAUCGAAUUUUAGGCGGACGCCUCCAAA [G38U U45A C58A U65C] and AUAAAAGCGCCAGAACUACAGAAAUGUAGUUGACGAGGAGGAGGUUUAUUGAAUUUUAGGCGGAUGUCUCCAAA [C50U C58A C67U] cannot be ordered by “self-cleavage kobs at 10000 uM GlcN6P” value: < 1e-05 s⁻¹ for the first, < 1e-05 s⁻¹ for the second.

First: AUAAAAGCGCCGCAACUACAGAAAUGUAGUUGACAAGGAGGAGGUUUAUCGAAUUUUCGGCGGAUGCCUCCAAA [A12G G13C G35A]
Second: AUAAAAUCGCCAGAUCUACAGAAAUGUAGUUGACGAGGAGGAGGUUUAUCGAAUUUUCGGCGGAUGCCUGCAAA [G7U A15U C70G]
The “self-cleavage kobs at 10000 uM GlcN6P” value of the first is lower: < 1e-05 s⁻¹ for the first, 3.63e-05 ± 1.7e-05 s⁻¹ for the second.

Going from AUAAAAGCGUCAGAACUACAGAAAUGUAGUUGACGAGGAGGAGGUUUAUCGAAUUUUCGUCGGUUGCCUCCAAA [C10U G60U A64U] to AUAAAAGCGCUAGCUCUACAGAAAUGUAGUUGACGAGUAGGAGGUUUAUCGAAUUUUCGGCGGAUGCGUCCAAA [C11U A14C A15U G38U C68G], the “self-cleavage kobs at 10000 uM GlcN6P” value rises from < 1e-05 s⁻¹ to 7.05e-05 ± 3e-05 s⁻¹.

AUAAAAGCGCGAGAACUACAGAAACGUAGUUGACGAGGAGGAGGUUUAUCGAUUUUUCGGCGGUUGCCUCCAAA [C11G U25C A53U A64U] and AUAAAAGCGCCAGAACUACAGAAAUGUAGUUGACGAGGACGAGGUUUAUCGAUUUUUCGGAGGAUGCCUCCAAA [G40C A53U C61A] cannot be ordered by “self-cleavage kobs at 10000 uM GlcN6P” value: < 1e-05 s⁻¹ for the first, < 1e-05 s⁻¹ for the second.

First: AUAAAAGCGCCAGAUCUACAGAAAUGUAGUUGACGAGGAGGAGGUUUAUCGAAUUUUCGGCGGAUGCCUUUAAA [A15U C70U C71U]
Second: AUAAAAGCGCCAGAAAUACAGAAAUGUAGUUGACGCGGAGGAGGUUUAUCGAAUUUACGGUGGAUGUCUCCAAA [C16A A36C U57A C61U C67U]
The “self-cleavage kobs at 10000 uM GlcN6P” value of the first is higher: 6.65e-05 ± 1.8e-05 s⁻¹ for the first, < 1e-05 s⁻¹ for the second.

First: AUAAAAGCGCCAGAACUACAGAAAUGUAGUUGACGAGGAGGAGGUUAAUCGAUUUUUCGGCGGAUGCGUCCAAA [U47A A53U C68G]
Second: AUAAAAGUGCCAGAACUACAGAAAUGUAGUUGAGGAGGAGGAGGUUUAUCGAAUUUUGGUCGGAUGUCUCCAAA [C8U C34G C58G G60U C67U]
The “self-cleavage kobs at 10000 uM GlcN6P” value of the first is higher: 4.16e-05 ± 1.7e-05 s⁻¹ for the first, < 1e-05 s⁻¹ for the second.

Compared with AUAAAAGCGCCAGAACUACAGAAAUGUAGUUAACGAGGUGGAGGUUUAUCGAAUUUUCGGCGGAUGCUUCCAAA [G32A A39U C68U], AUAAAAGCGCCAGAAUUACAGAAAUGUAGUUGACGAGGAGGAGGUCUAUCGAAUUUUGGGGGGAUGCCUCCAAA [C16U U46C C58G C61G] is 11-fold lower in “self-cleavage kobs at 10000 uM GlcN6P” value: 0.000655 ± 0.00014 s⁻¹ for the first, 5.92e-05 ± 2.1e-05 s⁻¹ for the second.

AUAAAAGCGCCAGAACUACAGAAAUGUAGUUGACGAGGGGGAGGUUUAUCGAAUUUUCGGAUGAUGCCUCCAAA [A39G C61A G62U] and AUAAAAGCGCCAGAACUACAGAAAUGUAGUUGACGAUGAGGAGGUUUAUCGAAUUUUCGUCGGAUGCCCCCAAA [G37U G60U U69C] cannot be ordered by “self-cleavage kobs at 10000 uM GlcN6P” value: < 1e-05 s⁻¹ for the first, < 1e-05 s⁻¹ for the second.

Compared with AUAAAAGCGCCAGAACUACAGAAAUGUAGCUAACGAGGAGGAGGUUUAUCGAAUUUUCGGCGGAUACCUCCAAA [U30C G32A G66A], AUAAAAGCGCCAGAAGUACAGAAAUGUAGUUGACCAGGAGGAGGUUUAUCGAAUUUUUGGCGGAUGCCUCCAAA [C16G G35C C58U] is lower in “self-cleavage kobs at 10000 uM GlcN6P” value: 0.001 ± 0.00026 s⁻¹ for the first, < 1e-05 s⁻¹ for the second.

AUAAAAGCGCCAGAACUACAGAAAUGUAGUUGACGAGGAGGUGGUCUAUAGAUUUUUCGGCGGAUGCCUCCAAA [A42U U46C C50A A53U] and AUAAAAGUGCCAGAACUACAGAAAUGUAGUUGACGACGAGGAGGUUUAUAGAAUUUUCCGCGGCUGCCUCCAAA [C8U G37C C50A G59C A64C] cannot be ordered by “self-cleavage kobs at 10000 uM GlcN6P” value: < 1e-05 s⁻¹ for the first, < 1e-05 s⁻¹ for the second.

AUAAAAGCGCCAGACCUACAGAAAUGUAGUUGGCGAGGAGGAGGUUUCUCGAAUUUUCGGCGGUUGCCUCCAAA [A15C A33G A48C A64U] and AUAAAAGCGCCAGAUCUACAGAAAUGUAGUUGACGAGGAGGAGGUUUAACGGAUUUUCGGCGGAUGCCUCCAAA [A15U U49A A52G] cannot be ordered by “self-cleavage kobs at 10000 uM GlcN6P” value: < 1e-05 s⁻¹ for the first, < 1e-05 s⁻¹ for the second.

First: AUAAAAGCGCCAGAACUACAGAAAUGUAGCUGACCAGGAGUAGGUUUAUCGAAUUUUCGGCGGAUGCCUCAAAA [U30C G35C G41U C71A]
Second: AUAAAAGCGCCAGAACUACAGAAAUGUAGUUUACGAGGAGGAGGUUUAUCGAAUUAUAGGCGGAUGCAUCCAAA [G32U U56A C58A C68A]
The “self-cleavage kobs at 10000 uM GlcN6P” value of the first is lower: < 1e-05 s⁻¹ for the first, 0.000114 ± 2.2e-05 s⁻¹ for the second.

First: AUAAAAGCGCCAGAUCUACAGAAAUGUAGUUCACGAGGAGGAGGUUUAUCGAAUUUUCGGCGGAUGCCUCUAAA [A15U G32C C71U]
Second: AUAAAGGCGCCAGAACUACAGAAAUGUAGUUGACGAGGAGGAGGUUAAUCGAAUUUUCGGCGGAUGCCUCCAAA [A6G U47A]
The “self-cleavage kobs at 10000 uM GlcN6P” value of the first is 5.1-fold lower: 8.58e-05 ± 2e-05 s⁻¹ for the first, 0.000437 ± 0.00013 s⁻¹ for the second.

Going from AUAAAAGCGCCUGCACUACAGAAAUGUAGUCGACGAGGAGGAGGUUUAUCGAAUUUUCGGCGGAUGCCUCCAAA [A12U A14C U31C] to AUAAAAGAGCCAGAACUACAGAAAUGUAGUUGACGUGGAGGAGGUUUAUCGAAUUUUCGGGGGAUACCUCCAAA [C8A A36U C61G G66A], the “self-cleavage kobs at 10000 uM GlcN6P” value falls from 0.00145 ± 0.00047 s⁻¹ to < 1e-05 s⁻¹.

Going from AUAAAAGCGCCCGAACUACAGAAAUGUAGUUGACGAAGAGGAGGUUGAUCGAAUUUUCGGCGGAUGCCUCCAAA [A12C G37A U47G] to AUAAAAGCGCGAGAACUACAGAAAUGUAGUUUACGAGGCGGAGGUUUAUCGAAUUUUCGGCGGAUGCCUCCAAA [C11G G32U A39C], the “self-cleavage kobs at 10000 uM GlcN6P” value falls from 0.000241 ± 4.8e-05 s⁻¹ to < 1e-05 s⁻¹.

Going from AUAAAAGCGCCAAAACUACAGAAAUGUAGUUGACGAGGAGGAGGUUUAUGGAAUUUUCGGCGGAUGCCUGCAAA [G13A C50G C70G] to AUAAAAGCGACAGAACUACAGAAAUGUAGUUGACGAGGAGGAGGAUUAUCGUAUUUUCGGCGGAUGCCUCCAAA [C10A U45A A52U], the “self-cleavage kobs at 10000 uM GlcN6P” value falls from 9.61e-05 ± 2e-05 s⁻¹ to < 1e-05 s⁻¹.

Compared with AUAAAAGCGCCAGAACUACAGAAAUGUAGUUGCCGAGGAGGAUGUUUACCGAAUUUUCGGCGGAUGCUUCCAAA [A33C G43U U49C C68U], AUAAAUGCGCCAGAACUACAGAAAUGUAGUUGACGAGGAGGAGGUUUAUCGAACGUUCGGCGGAUGCCUCCAAA [A6U U54C U55G] is higher in “self-cleavage kobs at 10000 uM GlcN6P” value: < 1e-05 s⁻¹ for the first, 0.000129 ± 3.3e-05 s⁻¹ for the second.

In the case of AUAAAAGCGCCAGAACUACAGAAAUGUAAUUUACGAGGAGGAGGUUUAUAGAAUUUUCGGCGGAUGCGUCCAAA [G29A G32U C50A C68G], the “self-cleavage kobs at 10000 uM GlcN6P” value is reported as 0.000193 ± 6e-05 s⁻¹.
